T1: rat PD1 protein (rat, UniProt D3ZIN8 25-169)
T1 construct: also called rat PD-1 proteins
T1 sequence: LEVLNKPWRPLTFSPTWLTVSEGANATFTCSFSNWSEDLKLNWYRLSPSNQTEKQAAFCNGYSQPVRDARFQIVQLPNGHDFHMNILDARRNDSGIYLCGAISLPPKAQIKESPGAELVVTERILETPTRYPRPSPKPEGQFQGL


Legend:
M5-1 = target: T2, M5-1; experiment: scFv-phage ELISA
T2 construct: also called PD1 mutant M5-1

M1-2 = target: T3, M1-2; experiment: scFv-phage ELISA
T3 construct: also called PD1 mutant M1-2

M1-1 = target: T4, M1-1; experiment: scFv-phage ELISA
T4 construct: also called PD1 mutant M1-1

M13 = target: T5, M13; experiment: scFv-phage ELISA
T5 construct: also called PD1 mutant M13

M6 = target: T6, M6; experiment: scFv-phage ELISA
T6 construct: also called PD1 mutant M6

M4 = target: T7, M4; experiment: scFv-phage ELISA
T7 construct: also called PD1 mutant M4

M1 = target: T8, M1; experiment: scFv-phage ELISA
T8 construct: also called PD1 mutant M1

M8 = target: T9, M8; experiment: scFv-phage ELISA
T9 construct: also called PD1 mutant M8

[1] = target: T10, human PD-1 (NM_005018.2) over-expressed on cells (human, UniProt Q15116 25-288); experiment: flow cytometry on cells over-expressing human PD-1, fit of Geometric Mean
T10 construct: whole, on cells; also called human PD-1 over-expressed on the cell surface; Jurkat cell line highly expressing human PD-1

[2] = target: T11, PD-1-His (S1352, Y-Biologics) (UniProt Q15116 25-170, limits assumed); experiment: competition ELISA: PD-L2-Fc coated, PD-1-His as binder, antibody as competitor
T11 construct: not shown: His tag
Description: (§1) Human PD-1-Fc (S1420, Y-Biologics) or PD-L2-Fc (#10292-H02H, Sino) was added to wells of a 96-well immuno microplate (#439454, Thermo) and then washed three times with PBS containing 0.05% tween-20 (#P9416, Sigma-Aldrich), followed by allowing to stand in a cleaning solution containing 4% skim milk (#232120, Becton, Dickinson and Company) at room temperature for 1 hour to block non-specific binding. […] After the resulting product was subjected to the same washing method as above, the anti-Biotin-His antibody (#MA1-21315-BTIN, Thermo) diluted to 1:2000 was added to the well of the microplate, allowed to react at room temperature for 1 hour, streptavidin poly-HRP antibody (#21140, Pierce) diluted to 1:5000 was added to the well of microplate, reacted at room temperature for 1 hour and then washed in the same manner. 100 ul of a TMB substrate solution (#T0440, Sigma-Aldrich) was added to the reaction product, light was shielded, and the reaction product was allowed to stand at room temperature for 3 minutes, 50 μL of 2.5 M sulfuric acid (#S1478, Samchun) was added to stop the reaction, and absorbance was measured at 450 nm using a spectrophotometer (*GM3000, Glomax® Discover System Promega).

PD1-hFc [3] = target: T12, PD1-hFc (human, UniProt Q15116 25-170); experiment: SPR ProteOn XPR36, PD1-hFc immobilised, antibody as analyte; parent antibody, Example 4 text (FIG. 9), not the Table 12 run
T12 construct: extracellular domain; also called PD1-hFc protein; Human PD-1-Fc (S1420, Y-Biologics)
Description: (§2) A ProteOn XPR36 (BioRad) instrument was used. The GLC sensor chip (BioRad) was mounted on the instrument and washed with PBST buffer, and the carboxymethyldextran surface was activated with an EDC/sulfo-NHS mixed solution. PD1-hFc dissolved at a concentration of 5 ug/ml in a 10 mM sodium acetate buffer solution (pH 5.0) was injected and immobilized on the GLC sensor chip.
(§3) In order to deactivate the activated carboxyl groups that remain unreacted with the PD1 protein, 1 M ethanolamine was flowed and 10 mM glycine (pH 2.0) was injected in order to wash proteins that remain unbound to the sensor chip.
(§4) The equilibrium dissociation constant (KD) was calculated by plotting and fitting the sensogram data in the equilibrium state depending on concentration.

PD1-hFc [4] = target: T12, PD1-hFc; experiment: SPR ProteOn XPR36, PD1-hFc immobilised, antibody as analyte
Description: as §2, §3, §4

monkey PD1 protein = target: T13, monkey PD1 protein (monkey); experiment: SPR ProteOn XPR36; format for monkey PD1 not described
T13 construct: also called monkey PD-1 proteins

PD1-hFc [5] = target: T12, PD1-hFc; experiment: competition ELISA: PD1-Fc coated, PDL1-His as binder, antibody as competitor
Description: as §1

[6] = target: T10, human PD-1 (NM_005018.2) over-expressed …; experiment: flow cytometry, 18 nM, over IgG
[7] = target: T10, human PD-1 (NM_005018.2) over-expressed …; experiment: cell-based or functional assay
rat PD1 protein = target: T1, rat PD1 protein; experiment: SPR ProteOn XPR36; format for rat PD1 not described
PD1-hFc [8] = target: T12, PD1-hFc; experiment: ProteOn XPR36; legend names PD1-hFc, the sheet names the immobilised protein PD-1 C-his

Row | Binder | OD490 (M5-1) | OD490 (M1-2) | OD490 (M1-1) | OD490 (M13) | OD490 (M6) | OD490 (M4) | OD490 (M1) | OD490 (M8) | Bmax [1] | Kd [1] | IC50 [2] | kon (PD1-hFc [4]) | Kd (monkey PD1 protein) | koff (monkey PD1 protein) | kon (monkey PD1 protein) | IC50 (PD1-hFc [5]) | Fold [6] | other results
1 | PD1-41C9 (antibody, V domains shown, scFv-phage in the screening ELISA; whole IgG in the other assays) VH: QMQLVESGGGVVQPGRSLRLSCAASGFTFSSYAMHWVRQAPGKGLEWVAVISYDGSNKYYADSVKGRFTISRDNSKNTLYLQMNRLRSEDTAVYYCTTTTFDSWGQGTLITVSS VL: DIVMTQTPLSLPVTPGEAASISCRSSQSLLDSEDGNTYLDWYLQKPGQSPQLLIYTLSHRASGVPDRFSGSGSGTDFTLKISRVAAEDVGLYYCLQRMGFPYTFGQGTKLDIK | 2.8 | 3.2 | 3.1 | 3.6 | 3.6 | 3.2 | 3.2 | 2.5 | – | – | – | – | – | – | – | – | – | –
2 | PD1-49A2 (antibody, V domains shown, scFv-phage in the screening ELISA; whole IgG in the other assays; also called Parent 49A2) VH: QVQLVESGGGVVQPGRSLRLSCAASGFTFSSYAMHWVRQAPGKGLEWVAVISYDGSNKYYADSVKGRFTISRDNPKNTLYLQMNSLRAEDTAVYYCTTTTFDSWGRGTLVTVSS VL: DIVMTQSPLSLPVTPGEPASISCRSSQSLFDSDDGNTYLDWYLQKPGQSPQLLIYTLSHRASGVPDRFSGSGSGTDFTLKISRVEAEDVGIYYCLQRMGFPYTFGQGTKVEIK | 0.7 | 3.8 | 3.4 | 3.9 | 3.9 | 3.9 | 3 | 3 | 3000 | 38.2 nM | 59.7 nM | 395000 M⁻¹ s⁻¹ | 0.001 nM | 1e-07 s⁻¹ | 168000 M⁻¹ s⁻¹ | 3.92 nM | 222 | Kd (PD1-hFc [3]): 0.019 nM; Kd (PD1-hFc [4]): 0.237 nM; koff (PD1-hFc [4]): 9.37e-05 s⁻¹
3 | PD1-45D6 (antibody, V domains shown, scFv-phage in the screening ELISA; whole IgG in the other assays) VH: QVQLVESGGGVVQPGRSLRLSCAASGFTFSSYAMHWVRQVPGKGLEWVAVISYDGNDKYYADSVKGRFTISRDNSKNTLYLQMNSLRAEDTAVYYCVPTTFEYWGQGSQVTVSS VL: DIVMTQTPLSLPVTPGEAASISCRSSQSLLDSDDGKTYLDWYLQKPGQSPQLLIYTLSYRASGVPDRFSGSGSGTEFNLRISRVEAEDVGIYYCMQRVEFPFTFGQGTKLDIK | 3.8 | 3.9 | 3.8 | 4 | 3.9 | 3.9 | 4 | 3.8 | 1640 | 2.7 nM | 49.6 nM | 270000 M⁻¹ s⁻¹ | 0.001 nM | 1e-07 s⁻¹ | 154000 M⁻¹ s⁻¹ | 3.72 nM | 286 | EC50 [7]: 1.88 nM; Kd (rat PD1 protein): 2.39 nM; koff (rat PD1 protein): 0.000133 s⁻¹; kon (rat PD1 protein): 55400 M⁻¹ s⁻¹; Kd (PD1-hFc [8]): < 0.001 nM; koff (PD1-hFc [8]): < 1.07e-07 s⁻¹
4 | PD1-52E8 (antibody, V domains shown, scFv-phage in the screening ELISA; whole IgG in the other assays) VH: QVQLVQSGGNLVQPGRSLRLSCAASGFTFDDYAMHWVRQAPGKGLEWVSGISWNSGTPGYADSVQGRFTISRDNAKNSLYLQMNSLRAEDTAVYYCARGHNYLDSSYYDYWGQGTLVTVSS VL: SYELTQPLSLSVAPGQTARITCSGDALSKEYSYWYQQKPGQAPVLVMYKDSERPSGIPERFSGSSSGTTVTLTISGVQAEDEADYYCQSVDSSDTSVVFGGGTKLTVL | 0.3 | 3.6 | 1.5 | 3.9 | 3.4 | 3.7 | 1.4 | 0.6 | – | – | – | – | – | – | – | – | – | –
